Experiment [1] deals with T1, Ffh (UniProt P0AGD7 1-453).
T1 construct: Ffh, the GTPase of the bacterial signal recognition particle; The methods of the fluorescence experiment name 'SRP' (2 uM), not Ffh alone; also called SRP GTPase; wild-type Ffh
T1 sequence (looked up): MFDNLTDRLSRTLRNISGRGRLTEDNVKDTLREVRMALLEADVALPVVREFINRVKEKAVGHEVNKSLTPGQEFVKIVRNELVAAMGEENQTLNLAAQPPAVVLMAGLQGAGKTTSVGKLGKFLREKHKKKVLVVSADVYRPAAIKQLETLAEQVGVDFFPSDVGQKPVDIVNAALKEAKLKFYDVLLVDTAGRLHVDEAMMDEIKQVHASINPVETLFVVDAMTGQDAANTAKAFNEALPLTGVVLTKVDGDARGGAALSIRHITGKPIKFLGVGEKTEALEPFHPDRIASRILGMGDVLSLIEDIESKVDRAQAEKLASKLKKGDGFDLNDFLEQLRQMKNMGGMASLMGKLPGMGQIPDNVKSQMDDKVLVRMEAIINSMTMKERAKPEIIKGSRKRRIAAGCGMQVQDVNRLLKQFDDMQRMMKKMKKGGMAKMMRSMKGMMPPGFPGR
Nature of the experiment: other fluorescence titration; tryptophan fluorescence of FtsY, time course at 335 nm; 1 uM mutant or wild-type FtsY, 2 uM SRP, 100 uM GppNHp, complex formation started by addition of Mg2+. To be noted: both partners purified.

For experiment [2], the target named is T1, Ffh. Nature of the experiment: GTPase inhibition (competition) assay; mutant FtsY varied as inhibitor of the GTPase reaction of Ffh with subsaturating wild-type FtsY; under these conditions Ki equals Kd of the Ffh-FtsY(mt) complex; fit to equation 3. The note with it: both partners purified.

B1: wild-type FtsY(47-497) (domain or fragment, Escherichia coli, UniProt P10121 47-497, looked up)
chain: ASEQAVEEQPQAHTEAEAETFAADVVEVTEQVAESEKAQPEAEVVAQPEPVVEETPEPVAIEREELPLPEDVNAEAVSPEEWQAEAETVEIVEAAEEEAAKEEITDEELETALAAEAAEEAVMVVPPAEEEQPVEEIAQEQEKPTKEGFFARLKRSLLKTKENLGSGFISLFRGKKIDDDLFEELEEQLLIADVGVETTRKIITNLTEGASRKQLRDAEALYGLLKEEMGEILAKVDEPLNVEGKAPFVILMVGVNGVGKTTTIGKLARQFEQQGKSVMLAAGDTFRAAAVEQLQVWGQRNNIPVIAQHTGADSASVIFDAIQAAKARNIDVLIADTAGRLQNKSHLMEELKKIVRVMKKLDVEAPHEVMLTIDASTGQNAVSQAKLFHEAVGLTGITLTKLDGTAKGGVIFSVADQFGIPIRYIGVGERIEDLRPFKADDFIEALFARED
notes: FtsY, SRP receptor, Escherichia coli, residues 47-497; also called SRP receptor; SR; source: expressed and purified as in Powers and Walter 1997; Peluso et al. 2001
For orientation: koff means a measure of how fast the partners let go of each other. Higher therefore signals a short-lived complex. Broadly, the kon is a measure of how fast the partners come together. With B1, in the experiment with Ffh [1], the koff came to 0.0036 s⁻¹ and the kon stood at 63600 M⁻¹ s⁻¹.

B2: FtsY A335(140)W (domain or fragment, Escherichia coli, UniProt P10121 47-497, looked up)
chain: ASEQAVEEQPQAHTEAEAETFAADVVEVTEQVAESEKAQPEAEVVAQPEPVVEETPEPVAIEREELPLPEDVNAEAVSPEEWQAEAETVEIVEAAEEEAAKEEITDEELETALAAEAAEEAVMVVPPAEEEQPVEEIAQEQEKPTKEGFFARLKRSLLKTKENLGSGFISLFRGKKIDDDLFEELEEQLLIADVGVETTRKIITNLTEGASRKQLRDAEALYGLLKEEMGEILAKVDEPLNVEGKAPFVILMVGVNGVGKTTTIGKLARQFEQQGKSVMLAAGDTFRAWAVEQLQVWGQRNNIPVIAQHTGADSASVIFDAIQAAKARNIDVLIADTAGRLQNKSHLMEELKKIVRVMKKLDVEAPHEVMLTIDASTGQNAVSQAKLFHEAVGLTGITLTKLDGTAKGGVIFSVADQFGIPIRYIGVGERIEDLRPFKADDFIEALFARED
notes: FtsY, Escherichia coli, residues 47-497, with A335W; number in parentheses is the T. aquaticus number; also called mutant FtsY A335(140)W; Class II mutant; source: expressed and purified as wild-type FtsY (Powers and Walter 1997; Peluso et al. 2001)
As a reminder, the Ki is the dissociation constant of the complex between target and ligand, obtained from inhibition or displacement. A higher Ki goes with a looser hold on the target. Consider B2, for which, in the experiment with Ffh [1], the koff came out at 0.0042 s⁻¹ and the on-rate constant (kon) was found to be 63400 M⁻¹ s⁻¹. For the same molecule, the Ki with Ffh [2] is 16 nM.

(Values after article PMC517823, “Mechanism of Association and Reciprocal Activation of Two GTPases” (PLoS Biology, 2004).)
